These results are taken from patent US20150253303A1 (FORSCHUNGSVERBUND BERLIN E V, published 2015).

Sequences and labels used below:
B2: LRRC8A (leucine-rich repeat-containing protein 8, family member A), human (other, UniProt Q8IWT6 1-810, looked up)
chain: MIPVTELRYFADTQPAYRILKPWWDVFTDYISIVMLMIAVFGGTLQVTQDKMICLPCKWVTKDSCNDSFRGWAAPGPEPTYPNSTILPTPDTGPTGIKYDLDRHQYNYVDAVCYENRLHWFAKYFPYLVLLHTLIFLACSNFWFKFPRTSSKLEHFVSILLKCFDSPWTTRALSETVVEESDPKPAFSKMNGSMDKKSSTVSEDVEATVPMLQRTKSRIEQGIVDRSETGVLDKKEGEQAKALFEKVKKFRTHVEEGDIVYRLYMRQTIIKVIKFILIICYTVYYVHNIKFDVDCTVDIESLTGYRTYRCAHPLATLFKILASFYISLVIFYGLICMYTLWWMLRRSLKKYSFESIREESSYSDIPDVKNDFAFMLHLIDQYDPLYSKRFAVFLSEVSENKLRQLNLNNEWTLDKLRQRLTKNAQDKLELHLFMLSGIPDTVFDLVELEVLKLELIPDVTIPPSIAQLTGLKELWLYHTAAKIEAPALAFLRENLRALHIKFTDIKEIPLWIYSLKTLEELHLTGNLSAENNRYIVIDGLRELKRLKVLRLKSNLSKLPQVVTDVGVHLQKLSINNEGTKLIVLNSLKKMANLTELELIRCDLERIPHSIFSLHNLQEIDLKDNNLKTIEEIISFQHLHRLTCLKLWYNHIAYIPIQIGNLTNLERLYLNRNKIEKIPTQLFYCRKLRYLDLSHNNLTFLPADIGLLQNLQNLAITANRIETLPPELFQCRKLRALHLGNNVLQSLPSRVGELTNLTQIELRGNRLECLPVELGECPLLKRSGLVVEEDLFNTLPPEVKERLWRADKEQA
notes: whole, on cells; Used for endogenous LRRC8A and for transfected LRRC8A; Co-IPs were done on detergent lysates; also called endogenous LRRC8A; native LRRC8A

The target of experiment [1] is B2. Kind of experiment: immunoprecipitation of endogenous proteins from WT HEK lysate.
The target of experiment [2] is GFP-ClC-1 (human ClC-1 Cl- channel in pEGFP-C1) (human, UniProt P42212 1-238 = GFP; P35523 1-988). Kind of experiment: co-immunoprecipitation from double-transfected HEK cells, Western blot. An excerpt:
The changed banding pattern of the mutant might result from altered posttranslational modifications. n.t., non-transfected. (C) Immunofluorescence using HA antibody of non-permeabilized versus permeabilized HeLa cells transfected with GFPLRRC8A carrying an HA-tag as indicated. Overlays of GFP (green) and HA (red) labeling. Insets show exclusively HA-staining. Scale bar, 20 μm. (D) LRRC8A co-precipitated epitopetagged LRRC8B through LRRC8E in double-transfected HEK cells. LRRC8B and LRRC8D were poorly expressible. […] (F) Epitope-tagged LRRC8B through LRRC8E co-precipitated LRRC8A. (G) Heteromerization of endogenous LRRC8 proteins. LRRC8A co-precipitated LRRC8E (for which a suitable antibody was available) in immunoprecipitation with an LRRC8A antibody from wild-type (WT) HEK cell lysate, but not from the LRRC8A−/− knockout (KO, clone 3E7). […] Lysate equivalent to 25% of input was loaded as reference (input).
For co-immunoprecipitation, HEK cells were co-transfected with plasmids (6 μg total) encoding myc-tagged or untagged LRRC8A and N-terminal fusion constructs of LRRC8A-E or ClC-1 (or soluble GFP) on 10 cm dishes using PEI as described above. […] After four washes with 500 μl IP buffer, precipitates were eluted in 40 μl Lämmli sample buffer, separated by SDS-PAGE and analyzed by Western blot as indicated. […]
In general terms: Immunoblotting shows a protein as a band on a membrane.

For experiment [3], the target named is T1, KCC1 plasma membrane ion transporter, endogenous in HEK cells (UniProt Q9UP95 1-1085, limits assumed).
T1 construct: whole, on cells; also called SLC12A4
T1 sequence (looked up): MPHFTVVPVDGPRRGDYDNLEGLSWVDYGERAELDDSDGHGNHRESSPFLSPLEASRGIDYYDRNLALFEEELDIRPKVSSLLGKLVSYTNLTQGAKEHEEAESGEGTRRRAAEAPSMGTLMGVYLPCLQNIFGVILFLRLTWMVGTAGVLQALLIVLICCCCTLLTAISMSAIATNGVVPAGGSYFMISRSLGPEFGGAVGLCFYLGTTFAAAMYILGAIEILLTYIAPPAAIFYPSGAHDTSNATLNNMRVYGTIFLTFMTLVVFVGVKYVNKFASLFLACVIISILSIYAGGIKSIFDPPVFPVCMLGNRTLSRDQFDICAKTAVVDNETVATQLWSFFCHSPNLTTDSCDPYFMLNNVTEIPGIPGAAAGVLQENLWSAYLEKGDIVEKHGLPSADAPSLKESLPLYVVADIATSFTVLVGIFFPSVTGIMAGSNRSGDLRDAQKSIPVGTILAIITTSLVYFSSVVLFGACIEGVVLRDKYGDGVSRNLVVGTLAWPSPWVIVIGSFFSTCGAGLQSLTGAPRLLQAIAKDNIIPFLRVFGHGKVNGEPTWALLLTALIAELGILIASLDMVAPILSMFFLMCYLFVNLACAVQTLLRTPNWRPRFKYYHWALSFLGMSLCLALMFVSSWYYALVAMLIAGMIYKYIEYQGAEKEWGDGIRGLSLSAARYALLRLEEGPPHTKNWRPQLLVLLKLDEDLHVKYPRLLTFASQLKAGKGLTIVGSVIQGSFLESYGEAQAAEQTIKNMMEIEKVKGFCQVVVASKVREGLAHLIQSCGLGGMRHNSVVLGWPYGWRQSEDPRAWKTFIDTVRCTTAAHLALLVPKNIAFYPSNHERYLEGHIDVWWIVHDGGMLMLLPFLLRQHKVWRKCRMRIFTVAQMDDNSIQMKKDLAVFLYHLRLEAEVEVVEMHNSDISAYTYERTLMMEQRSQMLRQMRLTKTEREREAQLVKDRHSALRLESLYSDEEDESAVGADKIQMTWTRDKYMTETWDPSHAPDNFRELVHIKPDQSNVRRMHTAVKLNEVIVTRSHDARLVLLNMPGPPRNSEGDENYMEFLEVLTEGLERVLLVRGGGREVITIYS
Put plainly: immunoprecipitation with LRRC8A antibody from WT HEK cell lysate, Western blot.

Experiment [4] deals with LRRC8E-GFP (human LRRC8E fused C-terminally to GFP) (human, UniProt Q6NSJ5 1-796; P42212 1-238 = GFP). Put plainly: cell-based or functional assay.
The target in experiment [5] is LRRC8C-GFP (human LRRC8C fused C-terminally to GFP) (human, UniProt Q8TDW0 1-803; P42212 1-238 = GFP). Put plainly: cell-based or functional assay.
For experiment [6], the target named is LRRC8D-GFP (human LRRC8D fused C-terminally to GFP) (human, UniProt Q7L1W4 1-858; P42212 1-238 = GFP). Kind of experiment: cell-based or functional assay.

B1: LRRC8E, endogenous (native) human protein (other, UniProt Q6NSJ5 1-796, looked up)
chain: MIPVAEFKQFTEQQPAFKVLKPWWDVLAEYLTVAMLMIGVFGCTLQVTQDKIICLPNHELQENLSEAPCQQLLPRGIPEQIGALQEVKGLKNNLDLQQYSFINQLCYETALHWYAKYFPYLVVIHTLIFMVCTSFWFKFPGTSSKIEHFISILGKCFDSPWTTRALSEVSGENQKGPAATERAAATIVAMAGTGPGKAGEGEKEKVLAEPEKVVTEPPVVTLLDKKEGEQAKALFEKVKKFRMHVEEGDILYTMYIRQTVLKVCKFLAILVYNLVYVEKISFLVACRVETSEVTGYASFCCNHTKAHLFSKLAFCYISFVCIYGLTCIYTLYWLFHRPLKEYSFRSVREETGMGDIPDVKNDFAFMLHLIDQYDSLYSKRFAVFLSEVSESRLKQLNLNHEWTPEKLRQKLQRNAAGRLELALCMLPGLPDTVFELSEVESLRLEAICDITFPPGLSQLVHLQELSLLHSPARLPFSLQVFLRDHLKVMRVKCEELREVPLWVFGLRGLEELHLEGLFPQELARAATLESLRELKQLKVLSLRSNAGKVPASVTDVAGHLQRLSLHNDGARLVALNSLKKLAALRELELVACGLERIPHAVFSLGALQELDLKDNHLRSIEEILSFQHCRKLVTLRLWHNQIAYVPEHVRKLRSLEQLYLSYNKLETLPSQLGLCSGLRLLDVSHNGLHSLPPEVGLLQNLQHLALSYNALEALPEELFFCRKLRTLLLGDNQLSQLSPHVGALRALSRLELKGNRLEALPEELGNCGGLKKAGLLVEDTLYQGLPAEVRDKMEEE
notes: whole, on cells; Untagged endogenous protein in cell lysates; also called native LRRC8E
Turning to B1, the binding result in experiment [1] is reported as “binds”.

B2: the binding result in experiment [2] and in experiment [3] was “no binding” each time. Further, the “V1/2 from Boltzmann fits (voltage-dependent inactivation of ICl(swell))” value came to 45.9 mV in experiment [4], 116 mV in experiment [5] and 72.4 mV in experiment [6].
